Measured values reported in paper PMC10632352, “Nde1 promotes Lis1-mediated activation of dynein” (Nature Communications, 2023).
Positions count from the first letter of the chain named. Names and notes keep the numbering of the source.

B1: Nde1^E118A/R129A (Lis1 binding mutant of Nde1), Q9NXR1 1-335 (natural protein)
chain: MEDSGKTFSSEEEEANYWKDLAMTYKQRAENTQEELREFQEGSREYEAELETQLQQIETRNRDLLSENNRLRMELETIKEKFEVQHSEGYRQISALEDDLAQTKAIKDQLQKYIRELAQANDDLERAKAATIMSLEDFEQRLNQAIERNAFLESELDEKENLLESVQRLKDEARDLRQELAVQQKQEKPRTPMPSSVEAERTDTAVQATGSVPSTPIAHRGPSSSLNTPGSFRRGLDDSTGGTPLTPAARISALNIVGDLLRKVGALESKLASCRNLVYDQSPNRTGGPASGRSSKNRDGGERRPSSTSVPLGDKGLDTSCRWLSKSTTRSSSSC
modifications: here or on the partner: a fluorescent dye in the colocalization assays; LD655, or Alexa488 and biotin, where labelled
B2: Nde1^E118K/R129E (Lis1 binding mutant of Nde1), Q9NXR1 1-335 (natural protein)
chain: B1 chain with A118K, A129E
modifications: here or on the partner: a fluorescent dye in the colocalization assays; LD655, or Alexa488 and biotin, where labelled
B3: human Nde1 (natural protein, UniProt Q9NXR1 1-335, looked up)
chain: B1 chain with A118E, A129R
modifications: LD655 or LD555 dye where labelled
notes: Nde1, human; Labelled through a SNAP or a ybbR tag; also called full-length Nde1; WT Nde1; source: Sf9 (baculovirus, pOmniBac), purified (IgG Sepharose, TEV elution, Superdex 200 Increase SEC)
B4: Nde1^E47A (DIC binding mutant of Nde1) (natural protein, human, UniProt Q9NXR1 1-335, looked up)
chain: B1 chain with E47A, A118E, A129R
modifications: a fluorescent dye in the colocalization assays
notes: Nde1, human, with E47A; Probably in full-length Nde1; source: Sf9 (baculovirus, pOmniBac), purified (IgG Sepharose, TEV elution, SEC)
B5: Nde1^E47K (DIC binding mutant of Nde1) (natural protein, human, UniProt Q9NXR1 1-335, looked up)
chain: B1 chain with E47K, A118E, A129R
modifications: a fluorescent dye in the colocalization assays
notes: Nde1, human, with E47K; Probably in full-length Nde1; source: Sf9 (baculovirus, pOmniBac), purified (IgG Sepharose, TEV elution, SEC)
B6: Nde1^E118A/R129A (Lis1 binding mutant of Nde1) (natural protein, human, UniProt Q9NXR1 1-335, looked up)
chain: B1 chain
modifications: a fluorescent dye in the colocalization assays
notes: Nde1, human, with E118A and R129A; Probably in full-length Nde1; source: Sf9 (baculovirus, pOmniBac), purified (IgG Sepharose, TEV elution, SEC)
B7: Nde1^E118K/R129E (Lis1 binding mutant of Nde1) (natural protein, human, UniProt Q9NXR1 1-335, looked up)
chain: B1 chain with A118K, A129E
modifications: a fluorescent dye in the colocalization assays
notes: Nde1, human, with E118K and R129E; Probably in full-length Nde1; source: Sf9 (baculovirus, pOmniBac), purified (IgG Sepharose, TEV elution, SEC)
B8: human Lis1 (natural protein, UniProt P43034 1-410, looked up)
chain: MVLSQRQRDELNRAIADYLRSNGYEEAYSVFKKEAELDVNEELDKKYAGLLEKKWTSVIRLQKKVMELESKLNEAKEEFTSGGPLGQKRDPKEWIPRPPEKYALSGHRSPVTRVIFHPVFSVMVSASEDATIKVWDYETGDFERTLKGHTDSVQDISFDHSGKLLASCSADMTIKLWDFQGFECIRTMHGHDHNVSSVAIMPNGDHIVSASRDKTIKMWEVQTGYCVKTFTGHREWVRMVRPNQDGTLIASCSNDQTVRVWVVATKECKAELREHEHVVECISWAPESSYSSISEATGSETKKSGKPGPFLLSGSRDKTIKMWDVSTGMCLMTLVGHDNWVRGVLFHSGGKFILSCADDKTLRVWDYKNKRCMKTLNAHEHFVTSLDFHKTAPYVVTGSVDQTVKVWECR
modifications: benzylguanine dyes on the SNAP tag, by experiment: LD555, LD655, or Alexa488 and biotin
notes: Lis1 (noncatalytic beta subunit of PAF-AH1B), human; Homodimer by mass photometry; also called full-length Lis1; SNAP-Lis1; source: Sf9 (baculovirus, pOmniBac), purified (IgG Sepharose, TEV elution, Superdex 200 Increase SEC)
B9: mtLis1 (dynein-binding mutant of Lis1, R316A and W340A) (natural protein, human, UniProt P43034 1-410, looked up)
chain: B8 chain with R316A, W340A
modifications: LD555, or Alexa488 and biotin, on the SNAP tag in the colocalization assays
notes: Lis1, human, with R316A and W340A on the beta-propeller domain; forms a dimer like Lis1; source: Sf9 (baculovirus, pOmniBac), purified (IgG Sepharose, TEV elution, SEC)
B10: Nde1^1–190 (N-terminus of human Nde1) (domain or fragment, UniProt Q9NXR1 1-190, looked up)
chain: MEDSGKTFSSEEEEANYWKDLAMTYKQRAENTQEELREFQEGSREYEAELETQLQQIETRNRDLLSENNRLRMELETIKEKFEVQHSEGYRQISALEDDLAQTKAIKDQLQKYIRELEQANDDLERAKRATIMSLEDFEQRLNQAIERNAFLESELDEKENLLESVQRLKDEARDLRQELAVQQKQEKPR
modifications: LD555 dye in the analytical SEC
notes: Nde1, human, N-terminal coiled-coil, residues 1-190 (C-terminus truncated); also called Nde1^1–190-LD555; source: Sf9 (baculovirus, pOmniBac), purified (IgG Sepharose, TEV elution, Superdex 200 Increase SEC)

How the values were obtained:
[1] = target: dynein mutant unable to attain the phi conformation (mtDyn) (human) (UniProt Q14204); experiment: single-molecule colocalization (TIRF); dynein (Alexa488 and biotin on its SNAP tag, 0.2 nM) immobilised on streptavidin / biotin-PEG glass; labelled prey in MB buffer (30 mM HEPES pH 7.0, 5 mM MgSO4, 1 mM EGTA, casein, pluronic, DTT, Taxol), 10 min, unbound prey not washed away; third proteins added
[2] = target: wild-type human dynein (cytoplasmic dynein-1 complex) (human) (UniProt Q14204); experiment: as above
WT dynein-GFP (human) = WT dynein-GFP (human) (UniProt Q14204); experiment: real-time TIRF of the initiation of DDR motility; microtubules decorated with WT dynein-GFP and Nde1-LD655 in the absence of Lis1; dynactin and BicDR1 (one of them LD555-labelled) flown in during imaging
[3] = target: dynein mutant unable to attain the phi conformation (mtDyn) (human), Q14204
human Lis1 = target: B8; experiment: cell-based or functional assay
Lis1^39–410 = target: T1, Lis1^39–410 (human, UniProt P43034 39-410); experiment: cell-based or functional assay
T1 sequence (looked up): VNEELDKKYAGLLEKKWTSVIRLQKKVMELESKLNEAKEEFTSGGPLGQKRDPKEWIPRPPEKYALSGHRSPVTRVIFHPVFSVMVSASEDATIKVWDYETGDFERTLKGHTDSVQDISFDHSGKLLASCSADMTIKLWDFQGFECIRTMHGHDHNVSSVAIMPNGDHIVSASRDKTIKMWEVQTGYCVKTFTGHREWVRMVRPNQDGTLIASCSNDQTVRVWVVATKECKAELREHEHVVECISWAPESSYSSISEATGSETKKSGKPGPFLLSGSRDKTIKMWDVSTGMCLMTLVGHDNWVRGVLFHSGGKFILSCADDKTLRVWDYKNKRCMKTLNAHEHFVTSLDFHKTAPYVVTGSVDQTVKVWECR

[4] = target: wild-type human dynein (cytoplasmic dynein-1 complex) (human) (UniProt Q14204); experiment: single-molecule colocalization (TIRF); dynein (Alexa488 and biotin on its SNAP tag, 0.2 nM) immobilised on streptavidin / biotin-PEG glass; labelled prey in MB buffer (30 mM HEPES pH 7.0, 5 mM MgSO4, 1 mM EGTA, casein, pluronic, DTT, Taxol), 10 min, unbound prey not washed away; third proteins added; remark: listed apart in the source
[5] = target: the molecule itself; experiment: mass photometry; proteins diluted to 5–20 nM in 30 mM HEPES pH 7.4, 5 mM MgSO4, 1 mM EGTA, 10% glycerol; Refeyn TwoMP; profiles fitted to multiple Gaussians
[6] = target: dynein mutant unable to attain the phi conformation (mtDyn) (human) (UniProt Q14204)
[7] = target: dynein-dynactin-BicDR1 complex assembled with wild-type human dynein (wtDDR) (human | pig | mouse) (UniProt Q14204); experiment: three-color TIRF comigration on microtubules; 100 nM BicDR1-mNG, 10 nM LD555-Lis1 and 10 nM LD655-Nde1 preincubated with the DDR components; processive runs on surface-immobilised microtubules
Chain of dynein-dynactin-BicDR1 complex assembled with wild-type human dynein (wtDDR) (human | pig | mouse) (Q14204 whole entry, looked up, one chain of several): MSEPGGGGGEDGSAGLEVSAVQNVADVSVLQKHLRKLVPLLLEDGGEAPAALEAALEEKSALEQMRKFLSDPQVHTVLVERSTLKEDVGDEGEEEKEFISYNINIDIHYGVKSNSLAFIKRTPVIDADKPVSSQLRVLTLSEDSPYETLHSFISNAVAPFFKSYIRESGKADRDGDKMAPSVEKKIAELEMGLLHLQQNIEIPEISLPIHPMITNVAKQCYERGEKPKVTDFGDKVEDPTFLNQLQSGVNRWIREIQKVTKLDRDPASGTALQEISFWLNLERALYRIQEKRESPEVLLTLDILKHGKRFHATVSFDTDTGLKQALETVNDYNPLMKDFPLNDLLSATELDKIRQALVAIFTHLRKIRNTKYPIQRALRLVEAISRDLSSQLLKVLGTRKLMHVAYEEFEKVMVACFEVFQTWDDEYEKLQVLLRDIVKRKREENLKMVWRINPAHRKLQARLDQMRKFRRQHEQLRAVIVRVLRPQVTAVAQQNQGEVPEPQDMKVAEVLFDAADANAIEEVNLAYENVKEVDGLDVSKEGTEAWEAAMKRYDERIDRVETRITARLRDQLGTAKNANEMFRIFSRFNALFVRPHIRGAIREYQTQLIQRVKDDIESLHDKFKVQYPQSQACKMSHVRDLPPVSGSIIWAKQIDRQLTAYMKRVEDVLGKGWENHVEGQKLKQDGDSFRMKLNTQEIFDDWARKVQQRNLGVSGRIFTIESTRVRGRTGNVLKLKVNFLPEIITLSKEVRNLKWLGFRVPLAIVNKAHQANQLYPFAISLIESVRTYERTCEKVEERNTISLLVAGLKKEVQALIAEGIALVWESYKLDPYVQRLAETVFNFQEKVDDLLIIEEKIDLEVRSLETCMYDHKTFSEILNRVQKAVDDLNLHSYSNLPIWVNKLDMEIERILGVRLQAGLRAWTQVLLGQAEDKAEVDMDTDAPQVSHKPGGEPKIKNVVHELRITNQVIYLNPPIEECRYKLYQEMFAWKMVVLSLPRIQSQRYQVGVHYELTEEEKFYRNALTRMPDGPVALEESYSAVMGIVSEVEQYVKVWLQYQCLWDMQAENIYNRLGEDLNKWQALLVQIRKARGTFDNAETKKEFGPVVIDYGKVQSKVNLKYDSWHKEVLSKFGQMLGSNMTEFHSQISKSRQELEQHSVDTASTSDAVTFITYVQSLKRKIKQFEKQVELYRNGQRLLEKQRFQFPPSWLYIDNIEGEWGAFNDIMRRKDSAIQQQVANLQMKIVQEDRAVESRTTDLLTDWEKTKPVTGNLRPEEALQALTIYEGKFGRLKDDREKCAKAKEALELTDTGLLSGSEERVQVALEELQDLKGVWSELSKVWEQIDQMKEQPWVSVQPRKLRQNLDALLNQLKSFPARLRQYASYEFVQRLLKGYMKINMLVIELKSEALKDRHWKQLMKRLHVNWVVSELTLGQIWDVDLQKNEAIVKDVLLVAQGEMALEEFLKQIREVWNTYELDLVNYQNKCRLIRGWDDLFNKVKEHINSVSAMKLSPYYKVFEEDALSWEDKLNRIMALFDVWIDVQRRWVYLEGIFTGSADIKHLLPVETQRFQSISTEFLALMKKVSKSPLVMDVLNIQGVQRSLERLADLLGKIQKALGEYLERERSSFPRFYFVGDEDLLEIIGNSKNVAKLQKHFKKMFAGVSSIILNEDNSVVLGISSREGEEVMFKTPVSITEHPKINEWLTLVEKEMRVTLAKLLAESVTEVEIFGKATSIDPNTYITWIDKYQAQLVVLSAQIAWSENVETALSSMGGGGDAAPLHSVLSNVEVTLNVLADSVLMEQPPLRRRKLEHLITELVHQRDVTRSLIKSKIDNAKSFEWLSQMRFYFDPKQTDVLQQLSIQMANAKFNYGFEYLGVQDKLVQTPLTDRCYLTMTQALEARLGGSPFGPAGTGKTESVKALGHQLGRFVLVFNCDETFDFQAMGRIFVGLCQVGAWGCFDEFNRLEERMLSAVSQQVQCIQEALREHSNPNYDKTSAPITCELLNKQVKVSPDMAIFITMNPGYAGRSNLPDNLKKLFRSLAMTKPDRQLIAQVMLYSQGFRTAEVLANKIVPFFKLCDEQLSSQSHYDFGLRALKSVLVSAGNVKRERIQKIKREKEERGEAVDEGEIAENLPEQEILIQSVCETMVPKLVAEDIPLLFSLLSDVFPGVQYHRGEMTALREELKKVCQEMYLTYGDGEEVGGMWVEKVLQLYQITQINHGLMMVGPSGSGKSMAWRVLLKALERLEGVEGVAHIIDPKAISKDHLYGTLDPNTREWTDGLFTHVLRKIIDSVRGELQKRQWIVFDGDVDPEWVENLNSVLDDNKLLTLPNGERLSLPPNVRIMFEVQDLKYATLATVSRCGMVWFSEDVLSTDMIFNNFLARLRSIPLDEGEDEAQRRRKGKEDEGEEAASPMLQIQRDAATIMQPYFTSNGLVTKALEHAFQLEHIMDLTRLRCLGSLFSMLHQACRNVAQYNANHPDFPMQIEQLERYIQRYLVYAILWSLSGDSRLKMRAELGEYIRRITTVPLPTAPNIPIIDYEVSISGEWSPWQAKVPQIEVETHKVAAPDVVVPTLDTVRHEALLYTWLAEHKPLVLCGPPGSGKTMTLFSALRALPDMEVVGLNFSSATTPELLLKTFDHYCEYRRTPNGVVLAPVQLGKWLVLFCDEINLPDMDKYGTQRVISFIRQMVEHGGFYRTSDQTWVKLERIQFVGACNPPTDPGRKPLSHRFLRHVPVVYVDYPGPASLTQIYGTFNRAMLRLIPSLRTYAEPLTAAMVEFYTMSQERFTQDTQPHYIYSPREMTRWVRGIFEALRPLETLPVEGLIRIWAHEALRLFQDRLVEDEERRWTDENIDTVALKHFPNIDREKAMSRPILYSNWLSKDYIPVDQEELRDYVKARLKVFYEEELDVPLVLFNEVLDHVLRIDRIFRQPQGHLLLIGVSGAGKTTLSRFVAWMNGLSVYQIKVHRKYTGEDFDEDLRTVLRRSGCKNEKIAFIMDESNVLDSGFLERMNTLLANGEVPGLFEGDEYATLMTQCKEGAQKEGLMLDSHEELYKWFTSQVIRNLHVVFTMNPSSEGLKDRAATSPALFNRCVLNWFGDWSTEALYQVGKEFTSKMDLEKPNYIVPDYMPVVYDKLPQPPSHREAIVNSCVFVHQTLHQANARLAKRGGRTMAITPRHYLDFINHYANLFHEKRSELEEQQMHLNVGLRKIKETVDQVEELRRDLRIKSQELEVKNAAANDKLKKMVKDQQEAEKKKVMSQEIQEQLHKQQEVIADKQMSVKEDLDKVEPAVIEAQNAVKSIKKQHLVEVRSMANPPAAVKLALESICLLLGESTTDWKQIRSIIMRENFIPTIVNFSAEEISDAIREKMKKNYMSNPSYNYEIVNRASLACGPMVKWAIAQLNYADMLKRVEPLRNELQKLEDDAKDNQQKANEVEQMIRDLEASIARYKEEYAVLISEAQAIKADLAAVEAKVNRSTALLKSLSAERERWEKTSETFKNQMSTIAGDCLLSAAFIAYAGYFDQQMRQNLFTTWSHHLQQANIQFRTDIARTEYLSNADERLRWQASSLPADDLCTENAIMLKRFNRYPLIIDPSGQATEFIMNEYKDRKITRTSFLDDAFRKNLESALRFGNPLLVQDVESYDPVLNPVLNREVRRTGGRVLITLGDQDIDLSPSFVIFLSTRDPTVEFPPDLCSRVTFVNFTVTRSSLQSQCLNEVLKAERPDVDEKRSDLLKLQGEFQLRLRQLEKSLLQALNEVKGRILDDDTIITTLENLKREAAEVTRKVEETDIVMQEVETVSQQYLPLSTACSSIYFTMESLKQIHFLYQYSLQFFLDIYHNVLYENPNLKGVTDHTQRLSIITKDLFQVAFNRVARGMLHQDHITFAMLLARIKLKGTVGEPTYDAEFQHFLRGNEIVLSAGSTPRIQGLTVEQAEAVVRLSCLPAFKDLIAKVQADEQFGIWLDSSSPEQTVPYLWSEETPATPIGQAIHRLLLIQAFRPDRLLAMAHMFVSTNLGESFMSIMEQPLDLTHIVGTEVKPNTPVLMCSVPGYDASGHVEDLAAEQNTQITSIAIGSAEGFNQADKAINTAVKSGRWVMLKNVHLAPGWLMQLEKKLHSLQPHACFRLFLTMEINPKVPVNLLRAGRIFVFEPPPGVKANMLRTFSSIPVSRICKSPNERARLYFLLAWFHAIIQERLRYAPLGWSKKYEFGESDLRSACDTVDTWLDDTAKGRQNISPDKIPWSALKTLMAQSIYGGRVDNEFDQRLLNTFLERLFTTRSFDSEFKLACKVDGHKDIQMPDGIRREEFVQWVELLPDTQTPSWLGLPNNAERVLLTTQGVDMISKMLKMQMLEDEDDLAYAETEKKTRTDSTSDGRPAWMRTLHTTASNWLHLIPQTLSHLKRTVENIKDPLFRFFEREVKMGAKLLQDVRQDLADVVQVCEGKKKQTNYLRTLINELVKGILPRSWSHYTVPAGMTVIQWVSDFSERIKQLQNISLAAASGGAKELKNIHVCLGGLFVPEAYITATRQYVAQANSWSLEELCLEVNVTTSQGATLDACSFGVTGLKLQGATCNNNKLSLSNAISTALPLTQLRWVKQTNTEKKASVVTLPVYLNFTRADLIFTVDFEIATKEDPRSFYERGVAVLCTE

pig brain dynactin (from UniProt A0A287B8J2 1-1281) (complex)
percent reduction of Nde1 colocalization to dynein (150 nM dynactin, 25 nM Nde1) [1]: 75%
percent reduction of Nde1 colocalization to dynein (150 nM dynactin, 25 nM Nde1) [2]: 37%
percent of dynein-colocalized Nde1 spots released (WT dynein-GFP (human)): 96%

B1
decrease of the frequency of mtDDR runs with 250 nM Nde1 mutant in the absence of Lis1 [3]: 50%

B2
decrease of the frequency of mtDDR runs with 250 nM Nde1 mutant in the absence of Lis1 [3]: 50%

B3
wtDDR run frequency on addition of 10 nM Nde1 with full-length Lis1 (human Lis1): > 10 fold
wtDDR run frequency on addition of 10 nM Nde1 with 100 nM Lis1^39–410 (Lis1^39–410): 3.2 fold
average bound time [4]: 21 s
average bound time with Lis1 added [4]: 42 s
stoichiometry N [5]: 2
decrease of the frequency of mtDDR runs with 250 nM Nde1 in the absence of Lis1 [6]: 50%

B4
stoichiometry N [5]: 2

B5
stoichiometry N [5]: 2

B6
stoichiometry N [5]: 2

B7
stoichiometry N [5]: 2

B8
percent of DDR complexes that co-migrate with Lis1 [7]: 70%
average bound time [4]: 12 s
average bound time with Nde1 added [4]: 35 s
stoichiometry N [5]: 2

B9
stoichiometry N [5]: 2

B10
stoichiometry N [5]: 2
